Here are results for three molecules from US20200347147A1 (Hoffmann-La Roche, published 2020).

Experiment [1] deals with T1, human Carcinoembryonic antigen (CEA), also known as Carcinoembryonic antigen-related cell adhesion molecule 5 (human, UniProt P06731 35-685).
T1 construct: whole, on cells; Expressed on the tumor cell lines MKN45, LS174T, HT29 and others, and on transiently transfected HEK293T cells; also called human CEA; CEACAM5
T1 sequence (looked up): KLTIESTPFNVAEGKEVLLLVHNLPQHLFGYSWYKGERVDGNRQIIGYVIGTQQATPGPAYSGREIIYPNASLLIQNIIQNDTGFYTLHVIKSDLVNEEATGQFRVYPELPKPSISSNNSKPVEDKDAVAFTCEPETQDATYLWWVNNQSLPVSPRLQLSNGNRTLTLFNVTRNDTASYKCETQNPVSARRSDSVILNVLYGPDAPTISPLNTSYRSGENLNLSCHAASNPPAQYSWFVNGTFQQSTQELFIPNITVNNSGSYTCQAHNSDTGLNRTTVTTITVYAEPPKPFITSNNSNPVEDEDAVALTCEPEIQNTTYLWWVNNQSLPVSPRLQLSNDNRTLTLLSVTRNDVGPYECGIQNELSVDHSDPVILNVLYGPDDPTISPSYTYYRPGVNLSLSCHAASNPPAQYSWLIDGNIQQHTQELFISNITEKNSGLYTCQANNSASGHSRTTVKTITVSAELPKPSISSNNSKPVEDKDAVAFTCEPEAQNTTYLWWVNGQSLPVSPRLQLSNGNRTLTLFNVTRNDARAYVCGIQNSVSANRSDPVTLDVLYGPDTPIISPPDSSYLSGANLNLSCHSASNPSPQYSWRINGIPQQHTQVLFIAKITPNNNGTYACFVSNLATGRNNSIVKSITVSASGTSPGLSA
Nature of the experiment: flow cytometry on CEA-expressing MKN45 cells, PE anti-human Fc secondary. The protocol:
Briefly, cells were harvested, counted, checked for viability and re-suspended at 2×10⁶ cells/ml in FACS buffer (100 μl PBS 0.1% BSA). […] Binding curves and EC50 values were obtained and calculated using GraphPadPrism5 (FIG. 2, binding to MKN45 cells).

A further experiment has as its target T2, human CEACAM1 (human, UniProt P13688 35-526).
T2 construct: whole, on cells
T2 sequence (looked up): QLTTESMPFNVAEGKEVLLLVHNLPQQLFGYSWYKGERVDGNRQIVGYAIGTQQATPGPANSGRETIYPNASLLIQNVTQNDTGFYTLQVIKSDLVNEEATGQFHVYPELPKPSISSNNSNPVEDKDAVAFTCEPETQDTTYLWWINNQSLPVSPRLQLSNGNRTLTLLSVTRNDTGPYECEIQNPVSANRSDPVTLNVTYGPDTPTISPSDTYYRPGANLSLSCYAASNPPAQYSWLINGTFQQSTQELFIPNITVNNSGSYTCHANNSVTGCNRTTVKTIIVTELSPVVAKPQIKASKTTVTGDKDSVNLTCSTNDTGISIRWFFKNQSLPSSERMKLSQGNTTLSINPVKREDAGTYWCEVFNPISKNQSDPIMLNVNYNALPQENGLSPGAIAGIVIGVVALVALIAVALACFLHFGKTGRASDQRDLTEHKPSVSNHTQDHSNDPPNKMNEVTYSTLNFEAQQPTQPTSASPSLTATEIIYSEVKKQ
The experiment can be described thus: flow cytometry on transient HEK293T transfectants. The method, then:
(§1) Briefly, cells were harvested, counted, checked for viability and re-suspended at 1×10⁶ cells/ml in FACS buffer (100 μl PBS 0.1% BSA). 100 μl of the cell suspension (containing 0.1×10⁶ cells) were plated iton round-bottom 96-well plates and washed twice with 150 μl of cold PBS. Cells were stained for 30 min at 4° C., using a 1:5000 pre-diluted suspension of the fixable viability dye eFluor660 (eBioscience, #65-0864-14) in PBS. […] Cells were washed twice with cold PBS 0.1% BSA, re-incubated for further 30 min at 4° C. with the FITC-conjugated AffiniPure F(ab′)2 Fragment goat anti-human IgG Fcg Fragment Specific secondary antibody (Jackson Immuno Research Lab FITC #109-096-098, 1:50 pre-diluted in PBS 0.1% BSA), washed twice with cold PBS 0.1% BSA and fixed using 150 μl PBS 0.1% BSA, containing 2% PFA and incubation at 4° C. for 20 min. Thereafter, cells were washed once for 8 min at 400×g, 4° C. and finally re-suspended in 150 μl FACS buffer for the FACS measurement. Fluorescence was measured using BD FACS CantoII. Binding curves were obtained using GraphPadPrism6 (FIG. 20A).

Another experiment concerns the target T3, human CEACAM6 (human, UniProt P40199 35-320).
T3 construct: whole, on cells
T3 sequence (looked up): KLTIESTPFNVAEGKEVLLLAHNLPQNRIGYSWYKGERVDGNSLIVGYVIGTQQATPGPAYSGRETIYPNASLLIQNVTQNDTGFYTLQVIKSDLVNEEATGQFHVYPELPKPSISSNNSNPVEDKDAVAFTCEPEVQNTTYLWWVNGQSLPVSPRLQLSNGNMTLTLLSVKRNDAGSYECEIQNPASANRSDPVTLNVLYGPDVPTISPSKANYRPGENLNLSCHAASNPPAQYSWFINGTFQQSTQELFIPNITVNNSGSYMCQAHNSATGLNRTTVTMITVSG
Nature of the experiment: flow cytometry on transient HEK293T transfectants. The protocol:
as §1

Experiment [2] has as its target T1, human Carcinoembryonic antigen (CEA), …. Nature of the experiment: cell-based or functional assay.
The target is the same in experiment [3]. The experiment can be described thus: flow cytometry on MKN45 cells (~513 300 CEA binding sites). The protocol:
(§2) The binding of the TCB molecules used in Example 5A and B was tested on different CEA-expressing tumor and CD3-expressing Jurkat (DSMZ ACC 282) cells.
(§3) Briefly, cells were harvested, counted, checked for viability and re-suspended at 2×10⁶ cells/ml in FACS buffer (100 μl PBS 0.1% BSA). 100 μl of cell suspension (containing 0.2×10⁶ cells) were incubated in round-bottom 96-well plate for 30 min at 4° C. with increasing concentrations of the CEA IgG (31 pM-500 nM), washed twice with cold PBS 0.1% BSA, re-incubated for further 30 min at 4° C. with the FITC-conjugated AffiniPure F(ab′)2 Fragment goat anti-human IgG Fcg Fragment Specific secondary antibody (Jackson Immuno Research Lab FITC #109-096-008, 1:40 pre-diluted in PBS 0.1% BSA), washed twice with cold PBS 0.1% BSA and fixed using 150 μl PBS 0.1% BSA, containing 2% PFA and incubation at 4° C. for 20 min. Thereafter, cells were washed once for 8 min at 400×g, 4° C. and finally re-suspended in 150 μl FACS buffer for the FACS measurement. Fluorescence was measured using Miltenyi MACSQuant.

Experiment [4] has the same target. Nature of the experiment: flow cytometry on LS-174T cells (~40 700 CEA binding sites). The protocol:
as §2, §3

B1: Humanized variant 1 of T84.66 IgG (antibody, V domains shown)
VH: QVQLVQSGAEVKKPGSSVKVSCKASGFNIKDTYMHWVRQAPGQGLEWMGRIDPANGNSKYVPKFQGRVTITADTSTSTAYMELSSLRSEDTAVYYCAPFGYYVSDYAMAYWGQGTLVTVSS
VL: EIVLTQSPATLSLSPGERATLSCRAGESVDIFGVGFLHWYQQKPGQAPRLLIYRASNRATGIPARFSGSGSGTDFTLTISSLEPEDFAVYYCQQTNEDPYTFGQGTKLEIK
notes: Tested as IgG and detected with an anti-human IgG Fc secondary antibody
In turn, B1 returned an EC50 in experiment [1] of 1.5 µg/mL.

B2: CEA CD3 TCB molecule B, "2+1 IgG CrossFab, inverted" with charge modifications, humanized CEA binder (humanized variant 1) (bispecific antibody)
heavy 1: not shown
heavy 2: QVQLVQSGAEVKKPGSSVKVSCKASGFNIKDTYMHWVRQAPGQGLEWMGRIDPANGNSKYVPKFQGRVTITADTSTSTAYMELSSLRSEDTAVYYCAPFGYYVSDYAMAYWGQGTLVTVSSASTKGPSVFPLAPSSKSTSGGTAALGCLVEDYFPEPVTVSWNSGALTSGVHTFPAVLQSSGLYSLSSVVTVPSSSLGTQTYICNVNHKPSNTKVDEKVEPKSCDKTHTCPPCPAPEAAGGPSVFLFPPKPKDTLMISRTPEVTCVVVDVSHEDPEVKFNWYVDGVEVHNAKTKPREEQYNSTYRVVSVLTVLHQDWLNGKEYKCKVSNKALGAPIEKTISKAKGQPREPQVCTLPPSRDELTKNQVSLSCAVKGFYPSDIAVEWESNGQPENNYKTTPPVLDSDGSFFLVSKLTVDKSRWQQGNVFSCSVMHEALHNHYTQKSLSLSP
light 1: EIVLTQSPATLSLSPGERATLSCRAGESVDIFGVGFLHWYQQKPGQAPRLLIYRASNRATGIPARFSGSGSGTDFTLTISSLEPEDFAVYYCQQTNEDPYTFGQGTKLEIKRTVAAPSVFIFPPSDRKLKSGTASVVCLLNNFYPREAKVQWKVDNALQSGNSQESVTEQDSKDSTYSLSSTLTLSKADYEKHKVYACEVTHQGLSSPVTKSFNRGEC
light 2: EVQLLESGGGLVQPGGSLRLSCAASGFTFSTYAMNWVRQAPGKGLEWVSRIRSKYNNYATYYADSVKGRFTISRDDSKNTLYLQMNSLRAEDTAVYYCVRHGNFGNSYVSWFAYWGQGTLVTVSSASVAAPSVFIFPPSDEQLKSGTASVVCLLNNFYPREAKVQWKVDNALQSGNSQESVTEQDSKDSTYSLSSTLTLSKADYEKHKVYACEVTHQGLSSPVTKSFNRGEC
notes: The two copies of the CEA light chain follow from the 2+1 format and the 1:2:1:1 vector ratio; also called CEA CD3 TCB based on humanized variant 1
For the molecule B2, the binding result with human CEACAM1 and with human CEACAM6 was “no binding (tested: 30.5 pM-500 nM)” throughout.

B3: CEA CD3 TCB molecule X (TCB of similar structure as molecule B, based on a different humanized CEA binder not based on T84.66) (bispecific antibody)
chain 1: not shown
chain 2: QVQLVQSGAEVKKPGASVKVSCKASGYTFTEFGMNWVRQAPGQGLEWMGWINTKTGEATYVEEFKGRVTFTTDTSTSTAYMELRSLRSDDTAVYYCARWDFAYYVEAMDYWGQGTTVTVSSASTKGPSVFPLAPSSKSTSGGTAALGCLVKDYFPEPVTVSWNSGALTSGVHTFPAVLQSSGLYSLSSVVTVPSSSLGTQTYICNVNHKPSNTKVDKKVEPKSCDKTHTCPPCPAPEAAGGPSVFLFPPKPKDTLMISRTPEVTCVVVDVSHEDPEVKFNWYVDGVEVHNAKTKPREEQYNSTYRVVSVLTVLHQDWLNGKEYKCKVSNKALGAPIEKTISKAKGQPREPQVCTLPPSRDELTKNQVSLSCAVKGFYPSDIAVEWESNGQPENNYKTTPPVLDSDGSFFLVSKLTVDKSRWQQGNVFSCSVMHEALHNHYTQKSLSLSPGK
chain 3: QAVVTQEPSLTVSPGGTVTLTCGSSTGAVTTSNYANWVQEKPGQAFRGLIGGTNKRAPGTPARFSGSLLGGKAALTLSGAQPEDEAEYYCALWYSNLWVFGGGTKLTVLSSASTKGPSVFPLAPSSKSTSGGTAALGCLVKDYFPEPVTVSWNSGALTSGVHTFPAVLQSSGLYSLSSVVTVPSSSLGTQTYICNVNHKPSNTKVDKKVEPKSC
chain 4: DIQMTQSPSSLSASVGDRVTITCKASAAVGTYVAWYQQKPGKAPKLLIYSASYRKRGVPSRFSGSGSGTDFTLTISSLQPEDFATYYCHQYYTYPLFTFGQGTKLEIKRTVAAPSVFIFPPSDEQLKSGTASVVCLLNNFYPREAKVQWKVDNALQSGNSQESVTEQDSKDSTYSLSSTLTLSKADYEKHKVYACEVTHQGLSSPVTKSFNRGEC
As for B3, in experiment [2], the “EC50 of T-cell mediated lysis of Kato III cells (LDH release, human PBMC, E:T 10:1), 48 h” value was determined as 8.23 nM. The values for the EC50 in experiment [3] and in experiment [4] were 27.9 nM and 11.7 nM, respectively.
